One experiment concerns the target T1, PBP1b (58-804) (E. coli, UniProt P02919 58-804).
T1 sequence: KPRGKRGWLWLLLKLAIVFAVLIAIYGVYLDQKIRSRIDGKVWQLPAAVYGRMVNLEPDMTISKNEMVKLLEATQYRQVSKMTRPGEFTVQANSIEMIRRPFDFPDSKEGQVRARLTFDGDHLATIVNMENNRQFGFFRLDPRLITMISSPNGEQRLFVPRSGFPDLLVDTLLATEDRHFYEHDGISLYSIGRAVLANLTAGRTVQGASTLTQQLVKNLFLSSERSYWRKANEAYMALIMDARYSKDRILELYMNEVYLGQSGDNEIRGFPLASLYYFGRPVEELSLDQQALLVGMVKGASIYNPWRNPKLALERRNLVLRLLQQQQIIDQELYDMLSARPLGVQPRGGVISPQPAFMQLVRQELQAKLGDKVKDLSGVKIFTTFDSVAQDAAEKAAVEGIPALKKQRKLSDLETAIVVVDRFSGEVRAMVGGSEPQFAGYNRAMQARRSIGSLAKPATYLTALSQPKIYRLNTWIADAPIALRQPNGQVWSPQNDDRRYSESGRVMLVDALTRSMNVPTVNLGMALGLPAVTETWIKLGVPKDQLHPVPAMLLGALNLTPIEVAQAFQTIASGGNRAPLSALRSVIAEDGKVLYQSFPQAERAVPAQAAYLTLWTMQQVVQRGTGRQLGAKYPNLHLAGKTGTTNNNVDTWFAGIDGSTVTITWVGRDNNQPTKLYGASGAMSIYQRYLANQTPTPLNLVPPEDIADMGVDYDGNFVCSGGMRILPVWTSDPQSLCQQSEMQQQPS
The experiment can be described thus: crystal structure.

The next experiment concerns the target T2, PBP1bγ (E. coli, UniProt P02919-2 1-799).
T2 sequence: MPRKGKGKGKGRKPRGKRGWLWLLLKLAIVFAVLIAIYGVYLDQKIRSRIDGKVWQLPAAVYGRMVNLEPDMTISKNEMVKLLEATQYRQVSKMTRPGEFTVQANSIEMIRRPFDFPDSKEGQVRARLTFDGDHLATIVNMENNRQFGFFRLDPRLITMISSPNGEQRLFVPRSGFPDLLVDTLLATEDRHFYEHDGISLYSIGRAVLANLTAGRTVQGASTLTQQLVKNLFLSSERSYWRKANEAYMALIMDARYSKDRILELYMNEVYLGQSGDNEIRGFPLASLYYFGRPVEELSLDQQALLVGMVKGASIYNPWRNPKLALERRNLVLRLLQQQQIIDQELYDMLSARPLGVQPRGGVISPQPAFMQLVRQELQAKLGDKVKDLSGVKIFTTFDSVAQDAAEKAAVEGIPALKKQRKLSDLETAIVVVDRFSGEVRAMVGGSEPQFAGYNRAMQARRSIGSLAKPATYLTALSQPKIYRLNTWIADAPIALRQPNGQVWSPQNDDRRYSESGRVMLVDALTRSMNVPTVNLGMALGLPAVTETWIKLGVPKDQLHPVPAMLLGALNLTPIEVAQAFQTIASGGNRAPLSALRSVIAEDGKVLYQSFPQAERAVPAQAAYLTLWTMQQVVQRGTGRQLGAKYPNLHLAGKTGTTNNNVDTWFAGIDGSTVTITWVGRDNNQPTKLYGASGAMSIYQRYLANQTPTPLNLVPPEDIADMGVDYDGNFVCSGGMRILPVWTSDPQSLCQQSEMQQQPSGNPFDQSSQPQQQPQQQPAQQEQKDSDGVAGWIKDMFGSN
Nature of the experiment: fluorescence polarisation.

No end group written: not given here. *: point of attachment. FITC = O=C1OC2(c3ccc(O)cc3Oc3cc(O)ccc32)c2ccc(NC(=S)*)cc21

The values that follow come from article doi:10.1101/2020.06.05.136150 (bioRxiv, 2020).

Take LPPKPEERWRYIKELESRQ [^EFtsN peptide (L75-Q93), unlabeled]: the binding result with PBP1b (58-804) is on record as “binds”. On to {FITC}-KVTGNGLPPKPEERWRYIKELESRQ [FITC labeled peptide (FITC-K69-Q93) of FtsN], for which, in the experiment with PBP1bγ, the Kd stood at 8.1 ± 1.7 µM.
